Measured values as given in patent US7910330.

Molecular target: native Pf AMA-1 on P. falciparum parasites (strain not specified) (Plasmodium falciparum)
Experiment: cell-based or functional assay

rat monoclonal antibody 4G2
inhibition of invasion: 50 to 60%
